Assay results as given in US20130324474A1 (Eli Lilly, published 2013).
Changes are numbered by the printed parent chain. Numbers in names are those of the source. One block for each binder: values may come before it.

Legend:
[1] = molecular target: T1, Recombinant Human GFRα-1/GDNF Rα-1 Fc Chimera (human, UniProt P56159 25-429); test: SPR (Biacore 2000), GFRα1-Fc captured on protein A, GDNFv as analyte, 1:1 Langmuir, 25 C
T1 construct: Purchased Fc chimera; It was captured on protein A in Biacore and coated on the plate in ELISA; also called GFRα1-Fc; recombinant human GFRα1-Fc chimera, carrier-free; not shown: Fc part of a purchased Fc chimera
T1 sequence (looked up): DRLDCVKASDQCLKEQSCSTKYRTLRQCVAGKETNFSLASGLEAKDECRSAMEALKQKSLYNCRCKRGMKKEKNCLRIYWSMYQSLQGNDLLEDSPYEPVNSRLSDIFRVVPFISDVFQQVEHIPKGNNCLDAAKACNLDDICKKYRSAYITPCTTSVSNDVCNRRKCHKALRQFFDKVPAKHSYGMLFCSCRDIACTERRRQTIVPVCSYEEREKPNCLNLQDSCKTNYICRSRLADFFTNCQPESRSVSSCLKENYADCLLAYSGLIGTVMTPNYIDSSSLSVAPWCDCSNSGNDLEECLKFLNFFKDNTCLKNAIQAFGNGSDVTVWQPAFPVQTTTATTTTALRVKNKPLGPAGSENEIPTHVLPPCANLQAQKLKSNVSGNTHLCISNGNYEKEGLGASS
Procedure: (§1) A Biacore® 2000 instrument is used to measure the binding kinetics of GDNFv to human and rat GDNF family receptors (GFRα1 and GFRα2). Measurements are performed at 25° C. Samples are dissolved in HBS-EP buffer (150 mM sodium chloride, 3 mM EDTA, 0.005% (w/v) surfactant P-20, pH 7.4). Protein A, Staphylococcus aureus is immobilized on flow cells 1 to 4 of a CM4 sensor chip (GE Healthcare #BR-1005-39) at a level of ˜200 response units (RUs) using amine coupling chemistry to capture GFR Fc chimera (Recombinant Human GFRα-1/GDNF Rα-1 Fc Chimera; Recombinant Human GFRα-2/GDNF Rα-2 Fc Chimera; Recombinant Rat GFRα-1/GDNF Rα-1 Fc Chimera; Recombinant Mouse GFRα-2/GDNF Rα-2 Fc Chimera).
(§2) Binding is evaluated using multiple cycles. Each cycle consists of the following steps: 1) injection of about 10 μL of GFR at a concentration of ˜1.0 μg/mL and a flow rate of 10 μL/min., aiming at a capture of 120-150 RUs; 2) injection of 250 μL of GDNFv at a flow rate of 50 μL/min., in a final concentration rage between 10 nM and 0.04 nM followed by […]. for dissociation; and 3) regeneration using about 30 μL of 10 mM glycine hydrochloride, pH 1.5. Association and dissociation rates for each cycle are evaluated using a “1:1 (Langmuir) binding” model in the BIAevaluation software, version 4.1.

human c-Ret = human c-Ret (human, UniProt P07949 29-1114, phosphorylation at Y1016 is the readout); test: cell-based or functional assay
[2] = molecular target: T1, Recombinant Human GFRα-1/GDNF Rα-1 Fc …; test: Biacore (SPR), GFRα-1; 4 C sample of the 4-week stability comparison
[3] = molecular target: T2, Recombinant Rat GFRα-1/GDNF Rα-1 Fc Chimera (rat, UniProt Q62997 25-445); test: SPR (Biacore 2000), rat GFRα1-Fc captured on protein A, GDNFv as analyte, 1:1 Langmuir, 25 C
T2 construct: Purchased Fc chimera; not shown: Fc part of a purchased Fc chimera
T2 sequence (looked up): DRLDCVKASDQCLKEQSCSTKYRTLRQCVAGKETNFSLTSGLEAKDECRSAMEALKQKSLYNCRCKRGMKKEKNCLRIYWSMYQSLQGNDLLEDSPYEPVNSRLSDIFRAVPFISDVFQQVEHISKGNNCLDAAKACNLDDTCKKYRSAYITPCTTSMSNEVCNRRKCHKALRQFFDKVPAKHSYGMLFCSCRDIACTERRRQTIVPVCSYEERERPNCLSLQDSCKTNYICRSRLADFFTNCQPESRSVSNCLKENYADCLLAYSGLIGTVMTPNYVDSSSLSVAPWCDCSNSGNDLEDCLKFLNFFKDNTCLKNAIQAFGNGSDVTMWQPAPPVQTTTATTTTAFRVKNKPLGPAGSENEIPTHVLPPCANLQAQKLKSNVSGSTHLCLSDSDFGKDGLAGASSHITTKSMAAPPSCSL
Procedure: as §1, §2

[4] = molecular target: T3, Recombinant Human GFRα-2/GDNF Rα-2 Fc Chimera (human, UniProt O00451 22-441); test: SPR (Biacore 2000), human GFRα2-Fc captured on protein A, GDNFv as analyte, 1:1 Langmuir, 25 C
T3 construct: Purchased Fc chimera; not shown: Fc part of a purchased Fc chimera
T3 sequence (looked up): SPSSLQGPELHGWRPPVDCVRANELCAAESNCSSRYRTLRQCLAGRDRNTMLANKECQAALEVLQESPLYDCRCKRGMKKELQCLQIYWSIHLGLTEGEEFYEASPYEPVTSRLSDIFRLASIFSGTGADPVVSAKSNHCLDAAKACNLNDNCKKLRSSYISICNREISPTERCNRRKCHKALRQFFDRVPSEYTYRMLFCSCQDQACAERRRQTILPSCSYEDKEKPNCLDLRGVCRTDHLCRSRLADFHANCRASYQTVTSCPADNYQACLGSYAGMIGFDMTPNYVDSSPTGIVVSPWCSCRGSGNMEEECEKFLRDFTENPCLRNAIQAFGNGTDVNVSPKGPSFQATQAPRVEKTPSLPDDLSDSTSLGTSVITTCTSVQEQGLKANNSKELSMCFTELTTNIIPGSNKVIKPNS
Procedure: as §1, §2

[5] = molecular target: T1, Recombinant Human GFRα-1/GDNF Rα-1 Fc …; test: ELISA, plate-bound human GFRα1-Fc; 4 C sample
Procedure: GDNF wild type and variants are tested in an ELISA assay, in which binding of the GDNF proteins to the plate-bound receptor (GFRα1) is measured. A “no GDNF” condition and/or an “irrelevant protein” condition are used as negative controls.
(§3) Each well of a 96-well plate (Greiner 655081 Immunobind ELISA plates) is coated with 70 μl of human GFRα1 (recombinant human GFRα1-Fc chimera, carrier-free) at 1 μg/ml in carbonate buffer, pH 9.6. If an irrelevant receptor is coated, it is an irrelevant Fc chimera and is coated at the same concentration as GFRα1. The plates are sealed and incubated at 4° C. overnight. The wells are aspirated and washed twice with washing buffer (20 mM Tris (hydroxymethyl) aminomethane, pH 7.4, 0.15 M NaCl, 0.1% Tween-20), using an automatic plate washer. The plates are blocked with 200 μl blocking buffer per well (3% Carnation Instant milk in the above washing buffer) for at least 1 hour at room temperature. Plates are washed twice with washing buffer.
GDNF proteins are serially diluted into blocking buffer at an appropriate concentration range, typically beginning at 5 μg/ml and serially diluting 1:10. A no GDNF control is used, which consists of blocking buffer alone. 50 μl of each GDNF solution is added to the GFRα1 coated wells in triplicate. The plates are incubated for 1.5 hours at room temperature. The wells are then washed 3 times with washing buffer.

[6] = molecular target: T1, Recombinant Human GFRα-1/GDNF Rα-1 Fc …; test: ELISA, plate-bound human GFRα1-Fc; lower end of the 95% confidence range, n = 8
Procedure: as §3, with “buffer. […]” for “buffer.”
(§4) A 50 μl aliquot of horseradish peroxidase-conjugated streptavidin (Jackson ImmunoResearch, catalog #016-030-084), diluted 1:1000 in blocking buffer, is added to each well and incubated for 20-30 minutes at room temperature. […] The absorbance of the wells is read at 490 nm on a Molecular Devices SpectraMax250 plate reader. The average absorbance for the triplicate wells for each condition are determined, and the resulting values are processed for EC₅₀ calculation with Graph Pad Prism software to provide a 95% confidence range.

[7] = molecular target: T1, Recombinant Human GFRα-1/GDNF Rα-1 Fc …; test: ELISA, plate-bound human GFRα1-Fc; upper end of the 95% confidence range, n = 8
Procedure: as §3, with “buffer. […]” for “buffer.”
as §4

[8] = molecular target: T3, Recombinant Human GFRα-2/GDNF Rα-2 Fc …; test: SPR (Biacore 2000), human GFRα2-Fc captured on protein A, GDNF as analyte, 1:1 Langmuir, 25 C
Procedure: as §1, §2

[9] = molecular target: T1, Recombinant Human GFRα-1/GDNF Rα-1 Fc …; test: SPR (Biacore 2000), GFRα1-Fc captured on protein A, GDNF as analyte, 1:1 Langmuir, 25 C; in the presence of 400 mM NaCl

Sequence of human c-Ret (P07949 29-1114): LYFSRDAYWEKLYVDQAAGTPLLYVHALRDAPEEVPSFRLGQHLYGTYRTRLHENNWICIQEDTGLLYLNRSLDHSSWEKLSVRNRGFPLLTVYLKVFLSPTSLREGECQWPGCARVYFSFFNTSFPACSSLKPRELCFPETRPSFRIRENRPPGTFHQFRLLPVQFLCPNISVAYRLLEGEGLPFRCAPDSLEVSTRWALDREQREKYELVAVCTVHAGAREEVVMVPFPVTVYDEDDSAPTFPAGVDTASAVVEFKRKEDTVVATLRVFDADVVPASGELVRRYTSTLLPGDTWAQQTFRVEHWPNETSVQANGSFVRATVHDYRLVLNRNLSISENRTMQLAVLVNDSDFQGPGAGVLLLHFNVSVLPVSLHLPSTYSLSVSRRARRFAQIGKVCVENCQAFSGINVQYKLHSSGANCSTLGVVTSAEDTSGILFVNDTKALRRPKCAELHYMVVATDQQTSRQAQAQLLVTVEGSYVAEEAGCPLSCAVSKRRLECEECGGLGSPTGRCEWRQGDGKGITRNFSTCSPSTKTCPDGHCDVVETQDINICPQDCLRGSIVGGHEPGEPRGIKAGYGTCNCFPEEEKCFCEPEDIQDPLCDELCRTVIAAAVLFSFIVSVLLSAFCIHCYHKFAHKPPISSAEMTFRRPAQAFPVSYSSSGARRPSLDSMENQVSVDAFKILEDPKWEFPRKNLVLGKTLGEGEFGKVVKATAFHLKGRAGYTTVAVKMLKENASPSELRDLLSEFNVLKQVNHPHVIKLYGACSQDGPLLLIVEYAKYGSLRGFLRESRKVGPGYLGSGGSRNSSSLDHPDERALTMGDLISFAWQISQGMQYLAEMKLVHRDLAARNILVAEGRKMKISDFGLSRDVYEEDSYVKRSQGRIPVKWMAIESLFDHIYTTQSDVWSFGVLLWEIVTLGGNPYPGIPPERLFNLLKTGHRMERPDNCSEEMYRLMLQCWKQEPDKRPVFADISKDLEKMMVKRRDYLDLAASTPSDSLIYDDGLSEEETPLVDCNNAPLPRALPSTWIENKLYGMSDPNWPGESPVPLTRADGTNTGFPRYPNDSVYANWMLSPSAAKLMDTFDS

B1: E. coli-Δ31-N38Q-D95E-GDNF (SEQ ID NO: 9) (ligand)
chain: RGQRGKQRGCVLTAIHLNVTDLGLGYETKEELIFRYCSGSCDAAETTYDKILKNLSRNRRLVSEKVGQACCRPIAFDDDLSFLDDNLVYHILRKHSAKRCGCI
notes: also called GDNF variant 2; clone D9
- Kd [1]: 0.047 nM
- koff [1]: 0.00016 s⁻¹
- kon [1]: 3.9e+06 M⁻¹ s⁻¹

B2: CHO-Δ31-N38Q-K84A-R88K-R90K-D95E-GDNF (SEQ ID NO: 12) (ligand)
chain: B1 chain with K53A, R57K, R59K
modifications: N-glycosylated at N49 (numbering of mature GDNF)
notes: Expressed in CHO cells; also called Δ31-N38Q-KAKKE; GDNF variant 3
- c-Ret phosphorylation at Y1016, EC50 (human c-Ret): 0.008 to 0.015 mg/L
- Kd [2]: 0.029 nM
- Kd [1]: 0.029 nM
- koff [1]: 0.00014 s⁻¹
- kon [1]: 6.2e+06 M⁻¹ s⁻¹
- Kd [3]: 0.021 nM
- koff [3]: 0.00021 s⁻¹
- kon [3]: 9.9e+06 M⁻¹ s⁻¹
- Kd [4]: 0.044 nM
- koff [4]: 0.00042 s⁻¹
- kon [4]: 9.6e+06 M⁻¹ s⁻¹

B4: CHO Δ31-N38Q-K84A-R88K-R90K-D95E-K125E-R130E GDNF (SEQ ID NO: 15) (ligand)
chain: B1 chain with K53A, R57K, R59K, K94E, R99E
- c-Ret phosphorylation at Y1016, EC50 (human c-Ret): 0.008 to 0.015 mg/L

Next, values leading:

- Kd [1]: 0.035 nM
- koff [1]: 0.00016 s⁻¹
- kon [1]: 5e+06 M⁻¹ s⁻¹
B3: E. Coli-Δ31-N38Q-K84A-R88K-R90K-D95E-GDNF (SEQ ID NO: 12) (ligand)
chain: B1 chain with K53A, R57K, R59K
notes: also called Δ31-N38Q-KAKKE; GDNF variant 3

- Kd [1]: 0.044 nM
- koff [1]: 0.00017 s⁻¹
- kon [1]: 4.2e+06 M⁻¹ s⁻¹
B5: E. Coli-Δ31-GDNF (SEQ ID NO: 8) (ligand)
chain: B1 chain with Q7N, E64D
notes: The NdeI start codon encodes a Met before R32; also called Delta-31 GDNF; Variant 1

- c-Ret phosphorylation at Y1016, EC50 (human c-Ret): 0.008 to 0.015 mg/L
- EC50 [5]: 0.4 nM
- Kd [2]: 0.064 nM
- EC50 [6]: 0.3 to 0.4 nM
- EC50 [7]: 0.3 to 0.4 nM
- Kd [8]: 0.1 nM
- koff [8]: 0.00026 s⁻¹
- kon [8]: 2.4e+06 M⁻¹ s⁻¹
- Kd [9]: 0.064 nM
- koff [9]: 0.00035 s⁻¹
- kon [9]: 6e+06 M⁻¹ s⁻¹
B6: E. Coli-WT-GDNF (SEQ ID NO: 3) (ligand)
chain: MSPDKQMAVLPRRERNRQAAAANPENSRGKGRRGQRGKNRGCVLTAIHLNVTDLGLGYETKEELIFRYCSGSCDAAETTYDKILKNLSRNRRLVSDKVGQACCRPIAFDDDLSFLDDNLVYHILRKHSAKRCGCI
notes: Expressed in E. coli, not glycosylated; also called WT E. coli GDNF; WT-E. coli GDNF
